Results published in US20110091968A1 (KABUSHIKI KAISHA HAYASHIBARA SEIBUTSU KAGAKU KENKYUJO, published 2011).

Key:
Experiment in all cases: Western blotting
[1] = target: T1, recombinant human IFNα subtype α10 (human, UniProt P01566 24-189)
T1 construct: also called rIFNα10; IFNα10
From the text: (§1) Proteins, contained in a part of the gel ranging from about 20 to about 29 kilo daltons (abbreviated as “kDa”, hereinafter) corresponding to the molecular weights of the proteins of IFNs, were transferred to a nitrocellulose membrane and soaked in “BlockAce”, a product name of a blocking solution to inhibit non-specific reaction commercialized by Dainippon Sumitomo Pharma, Co., Ltd., Tokyo, Japan. The resulting nitrocellulose membrane after the blocking treatment was soaked in a solution, containing 2 μg/ml of any of the nine monoclonal antibodies purified by using PROTEIN G SEPHAROSE, at ambient temperature for one hour, and washed with 50 mM Tris-HCl buffer (pH 7.5) containing 0.05% (v/v) tween 20 to remove excessive amounts of antibodies. The resulting nitrocellulose membrane was soaked in a solution containing an HRP labelled anti-mouse immunoglobulin or anti-rat immunoglobulin (both of which are commercialized by DakoCytomation, Denmark) at ambient temperature for one hour. The resulting membrane was washed with 50 mM Tris-HCl buffer (pH 7.5) containing 0.05% (v/v) tween 20 for 30 min and subjected to a color reaction by using commercialized “ECL western blotting detection reagent and Hyperfilm ECL”, a product name of a Western blotting detection kit commercialized by GE Healthcare Biosciences, Tokyo, Japan.

[2] = target: T2, recombinant human IFNα subtype α5 (human, UniProt P01569 24-189, limits assumed)
T2 construct: also called rIFNα5; IFNα5
From the text: as §1

[3] = target: T3, recombinant human IFNα subtype α6 (human, UniProt P05013 24-189, limits assumed)
T3 construct: also called rIFNα6; IFNα6
T3 sequence (P05013 24-189 limits assumed): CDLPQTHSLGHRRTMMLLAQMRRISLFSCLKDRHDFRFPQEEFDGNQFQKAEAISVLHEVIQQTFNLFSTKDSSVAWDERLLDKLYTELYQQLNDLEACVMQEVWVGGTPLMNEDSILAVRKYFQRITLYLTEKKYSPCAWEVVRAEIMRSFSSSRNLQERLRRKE
From the text: as §1

[4] = target: T4, recombinant human IFNα subtype α1 (human, UniProt P0DY56 24-189)
T4 construct: also called rIFNα1; IFNα1
T4 sequence (P0DY56 entry or part of it limits assumed): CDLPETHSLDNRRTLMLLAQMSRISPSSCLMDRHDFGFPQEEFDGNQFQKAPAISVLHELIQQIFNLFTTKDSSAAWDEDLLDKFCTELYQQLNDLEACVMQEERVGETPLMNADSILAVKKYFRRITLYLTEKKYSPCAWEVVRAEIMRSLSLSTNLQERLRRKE
From the text: as §1

human IFNβ = human IFNβ (human, UniProt P01574 22-187)
human IFNβ, sequence (P01574 22-187 limits assumed): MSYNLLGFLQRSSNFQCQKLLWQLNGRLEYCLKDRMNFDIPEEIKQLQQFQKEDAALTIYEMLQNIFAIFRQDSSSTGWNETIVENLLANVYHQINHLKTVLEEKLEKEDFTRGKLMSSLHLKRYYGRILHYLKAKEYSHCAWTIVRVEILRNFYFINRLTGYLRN

[5] = target: T5, human tumor necrosis factor (human, UniProt P01375 77-233)
T5 construct: also called human TNFα; TNFα
T5 sequence (P01375 77-233 limits assumed): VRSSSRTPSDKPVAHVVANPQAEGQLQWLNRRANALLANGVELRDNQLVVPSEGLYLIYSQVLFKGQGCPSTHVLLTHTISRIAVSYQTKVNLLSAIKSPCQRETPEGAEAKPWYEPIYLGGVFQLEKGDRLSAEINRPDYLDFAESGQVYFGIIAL

human IFNγ = target: T6, human IFNγ (human, UniProt P01579 24-166, limits assumed)
T6 sequence (looked up): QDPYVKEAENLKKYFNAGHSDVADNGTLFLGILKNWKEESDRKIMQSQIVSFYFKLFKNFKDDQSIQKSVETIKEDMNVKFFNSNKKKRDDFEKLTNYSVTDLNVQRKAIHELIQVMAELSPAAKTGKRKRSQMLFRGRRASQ

Measured: binding result

T1 sequence (P01566 24-189 limits assumed): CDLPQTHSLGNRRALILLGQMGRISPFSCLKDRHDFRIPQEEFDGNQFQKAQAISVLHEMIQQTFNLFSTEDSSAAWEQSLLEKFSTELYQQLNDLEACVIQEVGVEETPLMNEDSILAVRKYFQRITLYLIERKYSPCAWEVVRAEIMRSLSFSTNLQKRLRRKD
T2 sequence (P01569 24-189 limits assumed): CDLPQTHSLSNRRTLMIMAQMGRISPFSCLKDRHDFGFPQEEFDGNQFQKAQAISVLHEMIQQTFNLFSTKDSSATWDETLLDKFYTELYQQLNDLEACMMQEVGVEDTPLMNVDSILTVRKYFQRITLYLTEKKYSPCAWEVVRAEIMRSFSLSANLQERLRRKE

B1: α8#139 mAb (antibody, IgG1, V domains shown)
VH: QVQLKQSGPGLVQPSQSLSITCTVSGFSLTSYGVHWIRQSPGKGLEWLGVIWSGGNTDYNAAFISRLSITKDNSKSQFFFKMNSLQAKDTAIYYCARGRGNYVPFTYWGQGTLVTVSA
VL: QIVLTQSPTIMSASLGERVTMTCTASSSVSSTYLHWYQQKPGSSPKLLIYSTSNLASGVPARFSGSGSGTSYSLTISNMEAEDAATYYCHQYHRSPPMTFGGGTKLEIK
notes: HRP-labelled where used as labelled antibody; also called FERM BP-11081
no binding: all assays above

B2: α8Y36-2 mAb (antibody, IgG1, V domains shown)
VH: EVQLVESGGGLVQPGRSLKLSCAASGFTFSKYGMAWVRQAPTKGLEWVASISTGGYNTYYRDSVKGRFTISRDNAKNTQYLQMDSLRSEDTATYYCTRPPAFDHWGQGIMVTVSS
VL: DIKMTQSPSFLSASVGDRVTINCKASQNIDKYLNWYQQKLGKAPRLLMYNTNNLQTGIPSRFSGSGSTTDFTLTISSLQPEDVATYFCSHHSVRPYTFGAGTKLELK
notes: also called mAb-IFNα8Y36-2; FERM BP-11082
no binding: all assays above
